Results: PMC8622166 (International Journal of Molecular Sciences, 2021)

Target: RAC3 (human, UniProt P60763 1-192)
Assay: stopped-flow fluorimetry; association (kobs) at one concentration: 2 µM GDI mixed with 0.2 µM mdGDP-bound RHO GTPase; 25 °C, 30 mM Tris/HCl pH 7.5, 10 mM K2HPO4/KH2PO4 pH 7.5, 5 mM MgCl2, 3 mM DTT
Conditions: both partners purified

binding result: binds
B1: GDI3ΔN20 (domain or fragment, human, UniProt Q99819 21-225, looked up)
chain: LCARVLLADKEGGPPAVDEVLDEAVPEYRAPGRKSLLEIRQLDPDDRSLAKYKRVLLGPLPPAVDPSLPNVQVTRLTLLSEQAPGPVVMDLTGDLAVLKDQVFVLKEGVDYRVKISFKVHREIVSGLKCLHHTYRRGLRVDKTVYMVGSYGPSAQEYEFVTPVEEAPRGALVRGPYLVVSLFTDDDRTHHLSWEWGLCICQDWKD
